Tests used:
[1] = tested on: staphylococci; experiment: Lytic activity of chimera lysates against staphylococci; type: cell-based; conditions: qualitative
[2] = tested on: VISA strain Mu50; experiment: Checkerboard broth-microdilution assay; type: cell-based, Staphylococcus aureus; conditions: VISA strain Mu50
From the text: (§1) We used the checkerboard broth-microdilution assay to test the interaction of ClyS with vancomycin and with oxacillin. […] Isobolograms for ClyS with vancomycin and ClyS with oxacillin was plotted by transcribing the enzyme concentrations along the inhibitory line on the microtiter plate in an x/y plot.

[3] = tested on: MRSA strain COL; experiment: Checkerboard broth-microdilution assay; type: cell-based, Staphylococcus aureus
From the text: as §1

[4] = tested on: S. aureus; experiment: Lytic assays of chimeric lysins against S. aureus; type: cell-based, Staphylococcus aureus; conditions: for lytic/killing activity against S. aureus: qualitative
From the text: For this, the endopeptidase domain in Twort lysin (14) was used to construct chimera AD 119 (SEQ ID NO:3). […] To overcome low expression of AD 127 construct, the entire chimera gene was cloned into expression vector pJML6 to generate pAD 138.

[5] = tested on: S. aureus 8325-4 cells; experiment: Transmission electron microscopy of the lytic effect; type: cell-based, Staphylococcus aureus; conditions: 50 U of ClyS for 1-3 min
Experimental: However, unlike other lysins, the sites of degradation on the cell was not restricted to the septal or polar positions but was randomly distributed.
S. aureus strain 8325-4 was grown to log-phase, centrifuged and resuspended in PBS to an absorbance at 600 nm of 1.0. The bacterial suspension was incubated with 50 U of ClyS at room temperature. […] The suspension was pelleted by centrifugation and overlaid with 2.5% glutaraldehyde in 0.1 M cacodylate buffer (pH 7.4). The samples were then postfixed in 1% osmium tetroxide, block stained with uranyl acetate and processed according to standard procedures by The Rockefeller University Electron Microscopy Service.

[6] = tested on: S. aureus 8325-4 cells; experiment: Spectrophotometric loss of turbidity (OD600) lytic assay; type: cell-based, Staphylococcus aureus
Experimental: (§2) The unit activity of ClyS was defined by measuring the spectrophotometric loss of turbidity, indicative of cell lysis, of S. aureus 8325-4 cells upon adding serial dilutions of ClyS. In our assays, 5 micrograms of ClyS corresponded to 1 U of lytic activity. When 50 U of ClyS was added to exponentially growing 8325-4 cells the OD600 dropped to baseline within 5 min (FIG. 7). To confirm that the observed cell lysis corresponds to cell death, staphylococcal viability was determined by enumerating aliquots from the lytic reaction at various time points.
ClyS activity was measured as previously described (Daniel et al, 2001), with some modifications. Briefly, S. aureus strain 8325-4 was grown to an OD600 of 0.25-0.3, centrifuged, and resuspended in PB to a final OD600 of 0.8-1.0. Two-fold serial dilutions of purified ClyS […] were added to 100 μl of bacterial suspension in 96-well plates (Costar) and the decrease in OD600 was monitored by a Spectramax Plus 384 spectrophotometer (Molecular Devices) over 30 min at 37° C. ClyS activity in units per milliliter was defined as the reciprocal of the highest dilution of lysin that decreased the absorbance by 50% in 15 minutes.

[7] = tested on: S. aureus strain 8325-4; experiment: Viability assay (colony-forming units); type: cell-based, Staphylococcus aureus; conditions: 50 U of ClyS, in 30 min
Experimental: as §2
The viability assay of ClyS was tested as previously described (Nelson et al, 2001). Briefly, log phase cultures of S. aureus strain 8325-4 were resuspended in PB to OD600 of 0.8-1.0. 50 U of ClyS or the corresponding volume of PB was added to bacterial cells and aliquots were removed, serially diluted, and plated at 1, 5, 10, 30, and 60 minutes to assess the viability of the treated and control cells. All experiments were performed in triplicate. The activity of ClyS on various bacterial strains was tested as described previously (Schuch et al, 2002). Briefly, log phase bacterial cells were treated with 50 U of ClyS at 37° C. for 15 minutes. The samples were serially diluted and plated. Control experiments with the addition of phosphate buffer (pH 7.0) were performed under the same conditions.

[8] = tested on: MRSA strain MW2; experiment: Systemic MRSA infection model, survival; type: in vivo, FVB/NJ mice
Experimental: In order to assess whether ClyS treatment could prevent death resulting from systemic MRSA infections, 4 week old FVB/NJ mice were intraperitoneally injected with ˜5×10^5 CFU of the community-acquired MRSA strain MW2 in 5% mucin. Preliminary experiments determined that 5×10^5 CFU was 10× the LD100 dose for a twenty-four hour period. Furthermore, within 3 hours of IP injection the MRSA infection was systemic. i.e., MRSA were recovered in high numbers from heart, liver, spleen, and kidney (data not shown). Treatment occurred three hours post-infection, with either 20 mM phosphate buffer or 1 mg of ClyS in 20 mM phosphate buffer injected IP (intraperitoneally). Mice were then monitored for survival over ten days. The results from three independent experiments were combined (ClyS treatment, n=16; buffer treatment, n=14) and the mice survival data plotted with a Kaplan Meier Survival curve (FIG. 12), Within twenty-four hours all of the control mice died of bacterial sepsis, while only 2/16 of ClyS treated mice died at forty-eight hours, and the remaining mice (14/16, 88%) survived over the course of the experiments (FIG. 12).
To determine if this effect could be seen in our systemic MRSA infection model, FVB/NJ mice were intraperitoneally injected with ˜5×10^5 CFUs of the MRSA strain MW2 as above. Three hours post infection mice were treated in parallel, with a lower IP dose of 130 μg/mouse of ClyS combined with different concentrations of oxacillin (10-100 μg/mouse) or buffer alone controls. Preliminary experiments determined that an ED30 dose of ClyS (130 μg/mouse) had minimal efficacy to evaluate the effect of combinatorial treatment with oxacillin (data not shown). Mice were monitored for survival for 10 days and the results of 5 independent experiments were combined and plotted in a Kaplan Meier Survival curve (FIG. 14).

B1: ClyS: chimeric lysin: Twort lysin endopeptidase domain attached to the phiNM3 CWT domain, 280 amino acid residues (protein)
chain: METLKQAESYIKSKVNTGTDFDGLYGYQCMDLAVDYIYHVTDGKIRMWGNAKDAINNSFGGTATVYKNYPAFRPKYGDVVVWTTGNFATYGHIAIVTNPDPYGDLQYVTVLEQNWNGNGIYKTELATIRTHDYTGITHFIRPNFATESSVKKKDTKKKPKPSNRDGLNKDKIVYDRTNINYNMVLQGKSASKITVGSKAPYNLKWSKGAYFNAKIDGLGATSATRYGDNRTNYRFDVGQAVYAPGTLIYVFEIIDGWCRIYWNNHNEWIWHERLIVKEVF
modifications: Chimeric of Staphylococcus aureus bacteriophage Twort domain and Staphylococcus aureus phage phiNM3 CWT domain
notes: chimeric lysin: Twort lysin endopeptidase domain attached to the phiNM3 CWT domain, 280 amino acid residues
For B1, the “lytic activity against staphylococci” value [1] was “active”, the MIC [2] was 6 U/ml and the MIC [3] was 8 U/ml. The activity ([4]; AD 127 from the pAD138 construct) was “very high”, the “lytic/killing activity against S. aureus” value ([4]; listed as AD 127) was “very high activity” and the “lytic/killing activity against S. aureus” value ([4]; listed as AD127) was “little or no killing activity”. The “lytic effect seen by transmission electron microscopy” value [5] was “localized degradation of the cell wall”, the “time for OD600 to drop to baseline” value ([6]; 50 U of ClyS, exponentially growing 8325-4 cells) was no more than 5 min and the “amount corresponding to 1 U of lytic activity” value ([6]; unit = reciprocal of highest dilution that decreased absorbance by 50% in 15 minutes) was 5 micrograms. For the same molecule, the decrease in viability [7] was “approximately 3 logs”, the survival ([8]; 130 μg/mouse of ClyS IP alone, 10 days) was 30% and the “mice died at forty-eight hours” value ([8]; 1 mg of ClyS IP three hours post-infection) was 2/16. For the same molecule, the “survival over the course of the experiments” value ([8]; 1 mg of ClyS IP three hours post-infection, ten days) was 88% and the ED30 dose ([8]; IP, preliminary experiments) was 130 μg/mouse.
